From paper PMC10786891, “Massively parallel profiling of RNA-targeting CRISPR-Cas13d”
Where a chain is given by its changes, count along the chain named. Numbers in names are those of the source.

Target: T1, EsCas13d, nuclease-dead (Eubacterium siraeum, UniProt B0MS50, R295A;H300A;R849A;H854A)
T1 sequence: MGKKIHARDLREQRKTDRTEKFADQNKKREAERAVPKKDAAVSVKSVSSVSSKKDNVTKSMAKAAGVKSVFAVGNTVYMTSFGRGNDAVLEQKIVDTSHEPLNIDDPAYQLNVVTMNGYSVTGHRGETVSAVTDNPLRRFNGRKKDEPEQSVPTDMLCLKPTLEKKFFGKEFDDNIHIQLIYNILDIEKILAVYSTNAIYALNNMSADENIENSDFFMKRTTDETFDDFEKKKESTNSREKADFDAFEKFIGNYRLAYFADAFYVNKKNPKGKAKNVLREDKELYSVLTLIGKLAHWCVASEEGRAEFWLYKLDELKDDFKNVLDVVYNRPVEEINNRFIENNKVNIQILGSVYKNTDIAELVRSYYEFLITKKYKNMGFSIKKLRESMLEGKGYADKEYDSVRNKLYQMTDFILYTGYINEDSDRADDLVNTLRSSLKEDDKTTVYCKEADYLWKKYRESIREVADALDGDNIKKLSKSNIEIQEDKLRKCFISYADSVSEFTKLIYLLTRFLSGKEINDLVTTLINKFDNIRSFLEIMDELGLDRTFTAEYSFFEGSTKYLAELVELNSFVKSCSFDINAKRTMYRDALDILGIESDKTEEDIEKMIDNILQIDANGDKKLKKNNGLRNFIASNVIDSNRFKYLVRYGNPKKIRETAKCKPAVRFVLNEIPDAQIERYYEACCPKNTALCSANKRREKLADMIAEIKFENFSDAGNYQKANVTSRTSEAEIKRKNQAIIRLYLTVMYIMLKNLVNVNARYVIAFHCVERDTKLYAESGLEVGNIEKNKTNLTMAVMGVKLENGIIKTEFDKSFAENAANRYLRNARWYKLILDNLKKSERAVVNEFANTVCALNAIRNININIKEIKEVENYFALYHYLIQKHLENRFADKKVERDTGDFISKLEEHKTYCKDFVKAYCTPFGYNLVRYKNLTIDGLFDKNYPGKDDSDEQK
Test: crRNA (strand 1, pre-loaded); Mg2+; 40 mM Tris-HCl pH 7.5, 150 mM NaCl, 6 mM MgCl2, 1 mM DTT, 0.1% Tween-20, 0.2 mg/ml BSA; 25 C; 10 min per concentration, then washed
Details: tags: His6-TwinStrep-SUMO cleaved; N-terminal SNAP kept (SNAP-Surface 488); label: 3' end held by stalled T7 RNA polymerase

B1: target 2 MT 5'PFS UCA 3'PFS AUA (mixed)
RNA 1: CACCCGUGCAAAAUUGCAGGGGUCUAAAACCUUCUCCAAAUUGUUUCAUCCU
RNA 2: GGGAAUGGAUCCACAUCUACGAAUUCUCAAGGAUGAAACAAUUUGGAGAAGAUAAGAUCGGAAGAGCACACGU
- Kd: 6.2 ± 2 nM

B2: target 2 MT 5'PFS GUA 3'PFS CGA (mixed)
RNA 1: B1 RNA 1
RNA 2: B1 RNA 2 with U27G, C28U, A52C, U53G
- Kd: 6.4 ± 0.5 nM

B3: target 2 MT 5'PFS GAA 3'PFS CCG (mixed)
RNA 1: B1 RNA 1
RNA 2: B1 RNA 2 with U27G, C28A, A52C, U53C, A54G
- Kd: 10.5 ± 1.2 nM

B4: target 2 MT 5'PFS UCA 3'PFS AUC (mixed)
RNA 1: B1 RNA 1
RNA 2: B1 RNA 2 with A54C
- Kd: 3.6 ± 0.6 nM

B5: target 2 MT 5'PFS GUA 3'PFS CGC (mixed)
RNA 1: B1 RNA 1
RNA 2: B1 RNA 2 with U27G, C28U, A52C, U53G, A54C
- Kd: 7.4 ± 0.5 nM

B6: target 2 MT 5'PFS CUC 3'PFS UAU (mixed)
RNA 1: B1 RNA 1
RNA 2: B1 RNA 2 with U27C, C28U, A29C, A52U, U53A, A54U
- Kd: 1.99 ± 0.13 nM

B7: target 2 MT 5'PFS GCG 3'PFS CAA (mixed)
RNA 1: B1 RNA 1
RNA 2: B1 RNA 2 with U27G, A29G, A52C, U53A
- Kd: 9.7 ± 1.9 nM

B8: target 2 MT 5'PFS GCG 3'PFS CAU (mixed)
RNA 1: B1 RNA 1
RNA 2: B1 RNA 2 with U27G, A29G, A52C, U53A, A54U
- Kd: 13 ± 4 nM

B9: target 2 MT 5'PFS GCU 3'PFS AUA (mixed)
RNA 1: B1 RNA 1
RNA 2: B1 RNA 2 with U27G, A29U
- Kd: 8.9 ± 1.1 nM

B10: target 2 MT 5'PFS UAU 3'PFS CUG (mixed)
RNA 1: B1 RNA 1
RNA 2: B1 RNA 2 with C28A, A29U, A52C, A54G
- Kd: 17.4 ± 1.9 nM

B11: target 2 MT 5'PFS CGG 3'PFS UAU (mixed)
RNA 1: B1 RNA 1
RNA 2: B1 RNA 2 with U27C, C28G, A29G, A52U, U53A, A54U
- Kd: 5 ± 0.8 nM

B12: target 2 MT 5'PFS GCG 3'PFS CAC (mixed)
RNA 1: B1 RNA 1
RNA 2: B1 RNA 2 with U27G, A29G, A52C, U53A, A54C
- Kd: 10.4 ± 1.3 nM

B13: target 2 MT 5'PFS GGC 3'PFS UUU (mixed)
RNA 1: B1 RNA 1
RNA 2: B1 RNA 2 with U27G, C28G, A29C, A52U, A54U
- Kd: 27 ± 5 nM

B14: target 2 MT 5'PFS UAU 3'PFS CUU (mixed)
RNA 1: B1 RNA 1
RNA 2: B1 RNA 2 with C28A, A29U, A52C, A54U
- Kd: 54 ± 14 nM

B15: target 2 MT 5'PFS AAA 3'PFS AAG (mixed)
RNA 1: B1 RNA 1
RNA 2: B1 RNA 2 with U27A, C28A, U53A, A54G
- Kd: 4 ± 0.5 nM

B16: target 2 MT 5'PFS AGC 3'PFS UAC (mixed)
RNA 1: B1 RNA 1
RNA 2: B1 RNA 2 with U27A, C28G, A29C, A52U, U53A, A54C
- Kd: 10.5 ± 2.3 nM

B17: target 2 MT 5'PFS GCU 3'PFS AUU (mixed)
RNA 1: B1 RNA 1
RNA 2: B1 RNA 2 with U27G, A29U, A54U
- Kd: 15 ± 4 nM

B18: target 2 MT 5'PFS GUU 3'PFS CAU (mixed)
RNA 1: B1 RNA 1
RNA 2: B1 RNA 2 with U27G, C28U, A29U, A52C, U53A, A54U
- Kd: 14.2 ± 1.9 nM

B19: target 2 MT 5'PFS GAA 3'PFS CCA (mixed)
RNA 1: B1 RNA 1
RNA 2: B1 RNA 2 with U27G, C28A, A52C, U53C
- Kd: 25 ± 6 nM

B20: target 2 MT 5'PFS GGG 3'PFS AAU (mixed)
RNA 1: B1 RNA 1
RNA 2: B1 RNA 2 with U27G, C28G, A29G, U53A, A54U
- Kd: 6.2 ± 0.6 nM

B21: target 2 MT 5'PFS GAG 3'PFS UUA (mixed)
RNA 1: B1 RNA 1
RNA 2: B1 RNA 2 with U27G, C28A, A29G, A52U
- Kd: 14.2 ± 2.2 nM

B22: target 2 MT 5'PFS UAU 3'PFS CUA (mixed)
RNA 1: B1 RNA 1
RNA 2: B1 RNA 2 with C28A, A29U, A52C
- Kd: 22.7 ± 2.8 nM

B23: target 2 MT 5'PFS AGC 3'PFS UAA (mixed)
RNA 1: B1 RNA 1
RNA 2: B1 RNA 2 with U27A, C28G, A29C, A52U, U53A
- Kd: 8.7 ± 1.7 nM

B24: target 2 MT 5'PFS GCG 3'PFS CAG (mixed)
RNA 1: B1 RNA 1
RNA 2: B1 RNA 2 with U27G, A29G, A52C, U53A, A54G
- Kd: 9.4 ± 0.9 nM

B25: target 2 MT 5'PFS GCU 3'PFS AUG (mixed)
RNA 1: B1 RNA 1
RNA 2: B1 RNA 2 with U27G, A29U, A54G
- Kd: 22 ± 6 nM

B26: target 2 MT 5'PFS GAG 3'PFS UAU (mixed)
RNA 1: B1 RNA 1
RNA 2: B1 RNA 2 with U27G, C28A, A29G, A52U, U53A, A54U
- Kd: 5.6 ± 0.5 nM

B27: target 2 MT 5'PFS UGU 3'PFS CCG (mixed)
RNA 1: B1 RNA 1
RNA 2: B1 RNA 2 with C28G, A29U, A52C, U53C, A54G
- Kd: 12.6 ± 1.4 nM

B28: target 2 MT 5'PFS GAG 3'PFS UAA (mixed)
RNA 1: B1 RNA 1
RNA 2: B1 RNA 2 with U27G, C28A, A29G, A52U, U53A
- Kd: 5.1 ± 0.7 nM

B29: target 2 MT 5'PFS GAG 3'PFS UAC (mixed)
RNA 1: B1 RNA 1
RNA 2: B1 RNA 2 with U27G, C28A, A29G, A52U, U53A, A54C
- Kd: 10.6 ± 1.7 nM

B30: target 2 MT 5'PFS UAU 3'PFS CUC (mixed)
RNA 1: B1 RNA 1
RNA 2: B1 RNA 2 with C28A, A29U, A52C, A54C
- Kd: 38 ± 7 nM

B31: target 2 MT 5'PFS UCA 3'PFS AUU (mixed)
RNA 1: B1 RNA 1
RNA 2: B1 RNA 2 with A54U
- Kd: 4.4 ± 0.5 nM

B32: target 2 MT 5'PFS UCA 3'PFS AUG (mixed)
RNA 1: B1 RNA 1
RNA 2: B1 RNA 2 with A54G
- Kd: 4 ± 1 nM

B33: target 2 MT 5'PFS GAG 3'PFS UAG (mixed)
RNA 1: B1 RNA 1
RNA 2: B1 RNA 2 with U27G, C28A, A29G, A52U, U53A, A54G
- Kd: 6.2 ± 0.7 nM

B34: target 2 MT 5'PFS GCU 3'PFS AUC (mixed)
RNA 1: B1 RNA 1
RNA 2: B1 RNA 2 with U27G, A29U, A54C
- Kd: 14.5 ± 2.8 nM

B35: target 2 MT 5'PFS GAG 3'PFS UUG (mixed)
RNA 1: B1 RNA 1
RNA 2: B1 RNA 2 with U27G, C28A, A29G, A52U, A54G
- Kd: 8.5 ± 1 nM

B36: target 1 insG 3' of 22,insU 3' of 12 (mixed)
RNA 1: CACCCGUGCAAAAAUGCAGGGGUCUAAAACUGAGCGGAUAACCUCUCUAUGG
RNA 2: GGGAAUGGAUCCACAUCUACGAAUUCGUACGCAUAGAGAGGUUUAUCCGCUCACCGAGAUCGGAAGAGCACACGU
- Kd: 20.5 ± 1.8 nM

B37: target 1 C2A,C4G (mixed)
RNA 1: B36 RNA 1
RNA 2: GGGAAUGGAUCCACAUCUACGAAUUCGUACCAUAGAGAGGUUAUCCGGUAACCGAGAUCGGAAGAGCACACGU
- Kd: 12 ± 0.6 nM

B38: target 1 insG 3' of 1,insG 3' of 1 (mixed)
RNA 1: B36 RNA 1
RNA 2: GGGAAUGGAUCCACAUCUACGAAUUCGUACCAUAGAGAGGUUAUCCGCUCAGGCCGAGAUCGGAAGAGCACACGU
- Kd: 8.6 ± 0.5 nM
